Assay results published in the RNAGym collection of RNA variant scans (doi:10.7554/elife.80360).

B1: CPEB3 Ribozyme (parent)
chain: GGGGGCCACAGCAGAAGCGUUCACGUCGCGGCCCCUGUCAGAUUCUGGUGAAUCUGCGAAUUCUGCUGU

Variants of: B1
Experiment: self-cleavage, relative activity (ratio to wild type); higher = more cleavage; co-transcriptional

Q: With GGGGGCCACAGCAGAAGCGUUCACGUCGCGGCCCCUGUCAGAUUGUGGUGAAUCUGGGAAUUCUGCUGU [C45G C57G] as the variant, how does the self-cleavage read?
A: The self-cleavage was 0.328.

Q: Which self-cleavage does the source give for GGGGGCCACAGCAGAAGCGUUCACGUCGCGGCCCCUGUCAGAUUGUGGUGAAUCUGUGAAUUCUGCUGU [C45G C57U] here?
A: The self-cleavage was 0.366.

Q: For GGGGGCCACAGCAGAAGCGUUCACGUCGCGGCCCCUGUCAGAUUAUGGUGAAUCUGCGAAUUCUGCAGU [C45A U67A], which self-cleavage is on record?
A: Its self-cleavage is 0.951.

Q: For GGGGGCCACAGCAGAAGCGUUCACGUCGCGGCCCCUGUCAGAUUAUGGUGAAUCUGCGAAUUCUGCCGU [C45A U67C], which self-cleavage is on record?
A: The self-cleavage was 0.98.

Q: Which self-cleavage does the source give for GGGGGCCACAGCAGAAGCGUUCACGUCGCGGCCCCUGUCAGAUUAUGGUGAAUCUGCGAAUUCUGCGGU [C45A U67G] here?
A: Its self-cleavage is 1.01.

Q: With GGGGGCCACAGCAGAAGCGUUCACGUCGCGGCCCCUGUCAGAUUAUGGUGAAUCUGCGAAUUCUGCUGA [C45A U69A] as the variant, how does the self-cleavage read?
A: The self-cleavage was 1.

Q: Which self-cleavage does the source give for GGGGGCCACAGCAGAAGCGUUCACGUCGCGGCCCCUGUCAGAUUAUGGUGAAUCUGCGAAUUCUGCUGC [C45A U69C] here?
A: Its self-cleavage is 1.07.

Q: With GGGGGCCACAGCAGAAGCGUUCACGUCGCGGCCCCUGUCAGAUUAUGGUGAAUCUGCGAAUUCUGCUGG [C45A U69G] as the variant, how does the self-cleavage read?
A: The self-cleavage was 1.06.

Q: Which self-cleavage does the source give for GGGGGCCACAGCAGAAGCGUUCACGUCGCGGCCCCUGUCAGAUUGUGGUGACUCUGCGAAUUCUGCUGU [C45G A52C] here?
A: Its self-cleavage is 0.981.

Q: With GGGGGCCACAGCAGAAGCGUUCACGUCGCGGCCCCUGUCAGAUUAUGGUGAAUCUGCGAAUUCAGCUGU [C45A U64A] as the variant, how does the self-cleavage read?
A: Its self-cleavage is 0.821.

Q: With GGGGGCCACAGCAGAAGCGUUCACGUCGCGGCCCCUGUCAGAUUAUGGUGAAUCUGCGAAUUCCGCUGU [C45A U64C] as the variant, how does the self-cleavage read?
A: The self-cleavage was 0.842.

Q: For GGGGGCCACAGCAGAAGCGUUCACGUCGCGGCCCCUGUCAGAUUAUGGUGAAUCUGCGAAUUCGGCUGU [C45A U64G], which self-cleavage is on record?
A: Its self-cleavage is 0.809.

Q: With GGGGGCCACAGCAGAAGCGUUCACGUCGCGGCCCCUGUCAGAUUAUGGUGAAUCUGCGAAUUCUGCUCU [C45A G68C] as the variant, how does the self-cleavage read?
A: Its self-cleavage is 0.965.

Q: For GGGGGCCACAGCAGAAGCGUUCACGUCGCGGCCCCUGUCAGAUUAUGGUGAAUCUGCGAAUUCUGCUUU [C45A G68U], which self-cleavage is on record?
A: The self-cleavage was 0.998.

Q: Which self-cleavage does the source give for GGGGGCCACAGCAGAAGCGUUCACGUCGCGGCCCCUGUCAGAUUGUGGUAAAUCUGCGAAUUCUGCUGU [C45G G50A] here?
A: Its self-cleavage is 1.01.

Q: Which self-cleavage does the source give for GGGGGCCACAGCAGAAGCGUUCACGUCGCGGCCCCUGUCAGAUUGUGGUCAAUCUGCGAAUUCUGCUGU [C45G G50C] here?
A: The self-cleavage was 1.01.

Q: For GGGGGCCACAGCAGAAGCGUUCACGUCGCGGCCCCUGUCAGAUUGUGGUGAAUCUGCGAAAUCUGCUGU [C45G U61A], which self-cleavage is on record?
A: Its self-cleavage is 0.922.

Q: With GGGGGCCACAGCAGAAGCGUUCACGUCGCGGCCCCUGUCAGAUUGUGGUGAAUCUGCGAACUCUGCUGU [C45G U61C] as the variant, how does the self-cleavage read?
A: The self-cleavage was 0.757.

Q: With GGGGGCCACAGCAGAAGCGUUCACGUCGCGGCCCCUGUCAGAUUGUGGUGAAUCUGCGAAGUCUGCUGU [C45G U61G] as the variant, how does the self-cleavage read?
A: Its self-cleavage is 0.731.

Q: For GGGGGCCACAGCAGAAGCGUUCACGUCGCGGCCCCUGUCAGAUUGUGGUGAAUCGGCGAAUUCUGCUGU [C45G U55G], which self-cleavage is on record?
A: Its self-cleavage is 0.648.

Q: For GGGGGCCACAGCAGAAGCGUUCACGUCGCGGCCCCUGUCAGAUUGUGGUGAAUCAGCGAAUUCUGCUGU [C45G U55A], which self-cleavage is on record?
A: The self-cleavage was 0.797.

Q: With GGGGGCCACAGCAGAAGCGUUCACGUCGCGGCCCCUGUCAGAUUGUGGUGAAUCCGCGAAUUCUGCUGU [C45G U55C] as the variant, how does the self-cleavage read?
A: The self-cleavage was 0.487.

Q: With GGGGGCCACAGCAGAAGCGUUCACGUCGCGGCCCCUGUCAGAUUAUGGUGAAUCGGCGAAUUCUGCUGU [C45A U55G] as the variant, how does the self-cleavage read?
A: The self-cleavage was 0.475.

Q: Which self-cleavage does the source give for GGGGGCCACAGCAGAAGCGUUCACGUCGCGGCCCCUGUCAGAUUAUGGUGAAUCAGCGAAUUCUGCUGU [C45A U55A] here?
A: The self-cleavage was 0.534.

Q: Which self-cleavage does the source give for GGGGGCCACAGCAGAAGCGUUCACGUCGCGGCCCCUGUCAGAUUGUGGUGAAUCUGCGAUUUCUGCUGU [C45G A60U] here?
A: Its self-cleavage is 0.407.

Q: Which self-cleavage does the source give for GGGGGCCACAGCAGAAGCGUUCACGUCGCGGCCCCUGUCAGAUUGUGGUGAAUCUGCGAGUUCUGCUGU [C45G A60G] here?
A: The self-cleavage was 0.897.

Q: Which self-cleavage does the source give for GGGGGCCACAGCAGAAGCGUUCACGUCGCGGCCCCUGUCAGAUUGUGGUGAAUCUGCGACUUCUGCUGU [C45G A60C] here?
A: The self-cleavage was 0.493.

Q: With GGGGGCCACAGCAGAAGCGUUCACGUCGCGGCCCCUGUCAGAUUGUGGUGAAUCUGCGAAUUCUGCUCU [C45G G68C] as the variant, how does the self-cleavage read?
A: The self-cleavage was 1.

Q: Which self-cleavage does the source give for GGGGGCCACAGCAGAAGCGUUCACGUCGCGGCCCCUGUCAGAUUGUGGUGAAUCUGCGAAUUCUGCUAU [C45G G68A] here?
A: Its self-cleavage is 0.942.

Q: Which self-cleavage does the source give for GGGGGCCACAGCAGAAGCGUUCACGUCGCGGCCCCUGUCAGAUUGUGGUGAAUCUGCGAAUUCUGGUGU [C45G C66G] here?
A: The self-cleavage was 0.877.

Q: With GGGGGCCACAGCAGAAGCGUUCACGUCGCGGCCCCUGUCAGAUUGUGGUGAAUCUACGAAUUCUGCUGU [C45G G56A] as the variant, how does the self-cleavage read?
A: Its self-cleavage is 0.881.

Q: Which self-cleavage does the source give for GGGGGCCACAGCAGAAGCGUUCACGUCGCGGCCCCUGUCAGAUUUUGGUGCAUCUGCGAAUUCUGCUGU [C45U A51C] here?
A: The self-cleavage was 0.999.

Q: For GGGGGCCACAGCAGAAGCGUUCACGUCGCGGCCCCUGUCAGAUUAUGGCGAAUCUGCGAAUUCUGCUGU [C45A U49C], which self-cleavage is on record?
A: Its self-cleavage is 1.

Q: For GGGGGCCACAGCAGAAGCGUUCACGUCGCGGCCCCUGUCAGAUUGUGGGGAAUCUGCGAAUUCUGCUGU [C45G U49G], which self-cleavage is on record?
A: The self-cleavage was 0.947.

Q: Which self-cleavage does the source give for GGGGGCCACAGCAGAAGCGUUCACGUCGCGGCCCCUGUCAGAUUGUGGCGAAUCUGCGAAUUCUGCUGU [C45G U49C] here?
A: Its self-cleavage is 0.915.

Q: Which self-cleavage does the source give for GGGGGCCACAGCAGAAGCGUUCACGUCGCGGCCCCUGUCAGAUUGUGGUGAACCUGCGAAUUCUGCUGU [C45G U53C] here?
A: Its self-cleavage is 0.806.

Q: For GGGGGCCACAGCAGAAGCGUUCACGUCGCGGCCCCUGUCAGAUUGUGGUGAAGCUGCGAAUUCUGCUGU [C45G U53G], which self-cleavage is on record?
A: The self-cleavage was 0.858.

Q: Which self-cleavage does the source give for GGGGGCCACAGCAGAAGCGUUCACGUCGCGGCCCCUGUCAGAUUGUGGUGAAUCUGCGAAUUCUGCUGU [C45G] here?
A: Its self-cleavage is 0.986.

Q: For GGGGGCCACAGCAGAAGCGUUCACGUCGCGGCCCCUGUCAGAUUUUGGUGAAUCUGCGAAUUCUGCUGU [C45U], which self-cleavage is on record?
A: The self-cleavage was 0.996.
